The target in this data set is T1, PUF4 RNA-binding domain (Saccharomyces cerevisiae, UniProt P25339 537-888).
T1 sequence: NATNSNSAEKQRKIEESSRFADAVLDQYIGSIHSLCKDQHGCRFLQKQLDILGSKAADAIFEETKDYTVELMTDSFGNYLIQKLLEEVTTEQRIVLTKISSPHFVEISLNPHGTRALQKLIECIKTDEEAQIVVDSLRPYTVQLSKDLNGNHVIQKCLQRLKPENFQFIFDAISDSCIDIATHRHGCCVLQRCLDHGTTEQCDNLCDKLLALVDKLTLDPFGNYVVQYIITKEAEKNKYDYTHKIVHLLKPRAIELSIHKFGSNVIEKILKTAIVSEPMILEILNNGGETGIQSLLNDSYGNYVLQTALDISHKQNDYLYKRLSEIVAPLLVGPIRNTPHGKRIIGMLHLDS
The data set can be described thus: Mg; RNA-MaP; 20 mM Na-HEPES pH 7.4, 30 mM KOAc, 0.75 mM MgCl2, 0.1% Tween-20, 5% glycerol, 0.1 mg/mL BSA, 2 mM DTT; 25 C; 0.0125-409.6 nM protein. Conditions: tags: N-His6-TEV cleaved; C-SNAP kept, Cy3B-labelled; label: tethered on chip by stalled RNA polymerase.

Broadly, the Kd is the constant that tells how readily two partners part at equilibrium. A high value points to a looser complex. UCUCUUAUUGUAUUAUUAAAUCUCUU (ssRNA) [Id_ii_S1_P5E.2_K5.1_C5.2_[C-2A]_H5.1_A5.1_F5.1_T5.2_[T11A]] showed a dissociation constant (Kd) of 13.4 nM.
The result for UCUCUUUGUGUAUUAUUAAUUCUCUU (ssRNA) [Id_ii_S1_P5E.2_K5.1_C5.2_[C-2T]_[T-1G]_H5.1_A5.1_F5.1_T5.2_[T11A]_[A12T]] reads 4.68 nM.
For UCUCUUUGUACAAUAUCUCUU (ssRNA) [Ib_S1_P4E.1_K4.1_C4.1_H4.1_A4.1_[T5C]_[T7A]_F4.1_T4.1] the value was 1.29 nM; for UCUCUUUCUGUAUUAUUAACUCUCUU (ssRNA) [Id_ii_S1_P5E.2_K5.1_C5.2_[C-2T]_[T-1C]_H5.1_A5.1_F5.1_T5.2_[T11A]_[A12C]], 5.78 nM; for UCUCUUUCUGUAUUAUUAAAUCUCUU (ssRNA) [Id_ii_S1_P5E.2_K5.1_C5.2_[C-2T]_[T-1C]_H5.1_A5.1_F5.1_T5.2_[T11A]], 8.35 nM.
For UCUCUUUAUGUAUUAUUAAAUCUCUU (ssRNA) [Id_ii_S1_P5E.2_K5.1_C5.2_[C-2T]_[T-1A]_H5.1_A5.1_F5.1_T5.2_[T11A]] the value was 16.8 nM; for UCUCUUACUGUAUUAUUAUGUCUCUU (ssRNA) [Id_ii_S1_P5E.2_K5.1_C5.2_[C-2A]_[T-1C]_H5.1_A5.1_F5.1_T5.2_[A12G]], 8.64 nM; for UCUCUUUUUGUAUUAUUAAGUCUCUU (ssRNA) [Id_ii_S1_P5E.2_K5.1_C5.2_[C-2T]_H5.1_A5.1_F5.1_T5.2_[T11A]_[A12G]], 17 nM.
Turning to UCUCUUACUGUAUUAUUAUUUCUCUU (ssRNA) [Id_ii_S1_P5E.2_K5.1_C5.2_[C-2A]_[T-1C]_H5.1_A5.1_F5.1_T5.2_[A12T]], the Kd was 8.56 nM.
UCUCUUUGUAAAAUAUCUCUU (ssRNA) [Ic_S1_P4E.1_K4.1_C4.1_H4.1_A4.1_[T5A]_[T7A]_F4.1_T4.1] came in with a Kd of 3.38 nM.
On to UCUCUUUCUGUAUUAUUAUCUCUCUU (ssRNA) [Id_ii_S1_P5E.2_K5.1_C5.2_[C-2T]_[T-1C]_H5.1_A5.1_F5.1_T5.2_[A12C]], for which binding was put at a Kd of 4.88 nM.
For UCUCUUAUUGUAUUAUUAUCUCUCUU (ssRNA) [Id_ii_S1_P5E.2_K5.1_C5.2_[C-2A]_H5.1_A5.1_F5.1_T5.2_[A12C]] the value was 6.61 nM; for UCUCUUUCUGUAUUAUUAUGUCUCUU (ssRNA) [Id_ii_S1_P5E.2_K5.1_C5.2_[C-2T]_[T-1C]_H5.1_A5.1_F5.1_T5.2_[A12G]], 5.28 nM; for UCUCUUAUUGUAUUAUUAGCUCUCUU (ssRNA) [Id_ii_S1_P5E.2_K5.1_C5.2_[C-2A]_H5.1_A5.1_F5.1_T5.2_[T11G]_[A12C]], 4.53 nM.
Molecule UCUCUUCGUGUAUUAUUAGUUCUCUU (ssRNA) [Id_ii_S1_P5E.2_K5.1_C5.2_[T-1G]_H5.1_A5.1_F5.1_T5.2_[T11G]_[A12T]] returned a Kd of 3.02 nM.
The result for UCUCUUUGUGUAUUAUUAUCUCUCUU (ssRNA) [Id_ii_S1_P5E.2_K5.1_C5.2_[C-2T]_[T-1G]_H5.1_A5.1_F5.1_T5.2_[A12C]] reads 3.72 nM; that for UCUCUUUUUGUAUUAUUAUUUCUCUU (ssRNA) [Id_ii_S1_P5E.2_K5.1_C5.2_[C-2T]_H5.1_A5.1_F5.1_T5.2_[A12T]], 10.2 nM; that for UCUCUUAUUGUAUUAUUAACUCUCUU (ssRNA) [Id_ii_S1_P5E.2_K5.1_C5.2_[C-2A]_H5.1_A5.1_F5.1_T5.2_[T11A]_[A12C]], 11.1 nM.
Take UCUCUUUCUGUAUUAUUAAGUCUCUU (ssRNA) [Id_ii_S1_P5E.2_K5.1_C5.2_[C-2T]_[T-1C]_H5.1_A5.1_F5.1_T5.2_[T11A]_[A12G]]: the Kd was found to be 11.5 nM.
Molecule UCUCUUUAUGUAUUAUUAACUCUCUU (ssRNA) [Id_ii_S1_P5E.2_K5.1_C5.2_[C-2T]_[T-1A]_H5.1_A5.1_F5.1_T5.2_[T11A]_[A12C]] displayed a Kd of 13.9 nM.
The result for UCUCUUUAUGUAUUAUUAGUUCUCUU (ssRNA) [Id_ii_S1_P5E.2_K5.1_C5.2_[C-2T]_[T-1A]_H5.1_A5.1_F5.1_T5.2_[T11G]_[A12T]] reads 4.38 nM.
Regarding UCUCUUCGUGUAUUAUUAAGUCUCUU (ssRNA) [Id_ii_S1_P5E.2_K5.1_C5.2_[T-1G]_H5.1_A5.1_F5.1_T5.2_[T11A]_[A12G]], the Kd amounted to 14.8 nM.
The result for UCUCUUACUGUAUUAUUAUCUCUCUU (ssRNA) [Id_ii_S1_P5E.2_K5.1_C5.2_[C-2A]_[T-1C]_H5.1_A5.1_F5.1_T5.2_[A12C]] reads 9.38 nM.
For UCUCUUUAUGUAUUAUUAUUUCUCUU (ssRNA) [Id_ii_S1_P5E.2_K5.1_C5.2_[C-2T]_[T-1A]_H5.1_A5.1_F5.1_T5.2_[A12T]], binding was put at a Kd of 7.85 nM.
In turn, UCUCUUUUUGUAUUAUUAAUUCUCUU (ssRNA) [Id_ii_S1_P5E.2_K5.1_C5.2_[C-2T]_H5.1_A5.1_F5.1_T5.2_[T11A]_[A12T]] displayed a Kd of 8.7 nM.
UCUCUUAUUGUAUUAUUAUUUCUCUU (ssRNA) [Id_ii_S1_P5E.2_K5.1_C5.2_[C-2A]_H5.1_A5.1_F5.1_T5.2_[A12T]] had a Kd of 5.93 nM.
UCUCUUUUUGUAUUAUUAGCUCUCUU (ssRNA) [Id_ii_S1_P5E.2_K5.1_C5.2_[C-2T]_H5.1_A5.1_F5.1_T5.2_[T11G]_[A12C]] displayed a Kd of 4.26 nM.
Regarding UCUCUUUGUAAACUAUCUCUU (ssRNA) [Ic_S1_P4E.1_K4.1_C4.1_H4.1_A4.1_[T5A]_[T7C]_F4.1_T4.1], binding was put at a Kd of 2.01 nM.
The molecule UCUCUUACUGUAUUAUUAAUUCUCUU (ssRNA) [Id_ii_S1_P5E.2_K5.1_C5.2_[C-2A]_[T-1C]_H5.1_A5.1_F5.1_T5.2_[T11A]_[A12T]] returned a Kd of 12.5 nM.
In turn, UCUCUUACUGUAUUAUUAAAUCUCUU (ssRNA) [Id_ii_S1_P5E.2_K5.1_C5.2_[C-2A]_[T-1C]_H5.1_A5.1_F5.1_T5.2_[T11A]] gave a Kd of 23.8 nM.
Molecule UCUCUUUGUGUAUUAUUAUUUCUCUU (ssRNA) [Id_ii_S1_P5E.2_K5.1_C5.2_[C-2T]_[T-1G]_H5.1_A5.1_F5.1_T5.2_[A12T]] registered a Kd of 3.95 nM.
The result for UCUCUUUUUGUAUUAUUAAAUCUCUU (ssRNA) [Id_ii_S1_P5E.2_K5.1_C5.2_[C-2T]_H5.1_A5.1_F5.1_T5.2_[T11A]] reads 16.4 nM; that for UCUCUUUUUGUAUUAUUAUGUCUCUU (ssRNA) [Id_ii_S1_P5E.2_K5.1_C5.2_[C-2T]_H5.1_A5.1_F5.1_T5.2_[A12G]], 7.22 nM; that for UCUCUUUAUGUAUUAUUAUCUCUCUU (ssRNA) [Id_ii_S1_P5E.2_K5.1_C5.2_[C-2T]_[T-1A]_H5.1_A5.1_F5.1_T5.2_[A12C]], 8.06 nM.
As for UCUCUUUAUGUAUUAUUAGCUCUCUU (ssRNA) [Id_ii_S1_P5E.2_K5.1_C5.2_[C-2T]_[T-1A]_H5.1_A5.1_F5.1_T5.2_[T11G]_[A12C]], the Kd came out at 4.56 nM.
UCUCUUUUUGUAUUAUUAGUUCUCUU (ssRNA) [Id_ii_S1_P5E.2_K5.1_C5.2_[C-2T]_H5.1_A5.1_F5.1_T5.2_[T11G]_[A12T]] had a Kd of 3.49 nM.
For the molecule UCUCUUUCUGUAUUAUUAUUUCUCUU (ssRNA) [Id_ii_S1_P5E.2_K5.1_C5.2_[C-2T]_[T-1C]_H5.1_A5.1_F5.1_T5.2_[A12T]], binding was put at a Kd of 5.27 nM.
UCUCUUCGUGUAUUAUUAACUCUCUU (ssRNA) [Id_ii_S1_P5E.2_K5.1_C5.2_[T-1G]_H5.1_A5.1_F5.1_T5.2_[T11A]_[A12C]]: the Kd stood at 12.5 nM.
For UCUCUUAUUGUAUUAUUAUGUCUCUU (ssRNA) [Id_ii_S1_P5E.2_K5.1_C5.2_[C-2A]_H5.1_A5.1_F5.1_T5.2_[A12G]] the value was 10.1 nM.
UCUCUUUUUGUAUUAUUAACUCUCUU (ssRNA) [Id_ii_S1_P5E.2_K5.1_C5.2_[C-2T]_H5.1_A5.1_F5.1_T5.2_[T11A]_[A12C]]: the dissociation constant Kd came to 8.08 nM.
Regarding UCUCUUUGUGUAUUAUUAACUCUCUU (ssRNA) [Id_ii_S1_P5E.2_K5.1_C5.2_[C-2T]_[T-1G]_H5.1_A5.1_F5.1_T5.2_[T11A]_[A12C]], binding was put at a Kd of 3.86 nM.
UCUCUUUUUGUAUUAUUAUCUCUCUU (ssRNA) [Id_ii_S1_P5E.2_K5.1_C5.2_[C-2T]_H5.1_A5.1_F5.1_T5.2_[A12C]] came in with a Kd of 5.34 nM.
In turn, UCUCUUUAUGUAUUAUUAAUUCUCUU (ssRNA) [Id_ii_S1_P5E.2_K5.1_C5.2_[C-2T]_[T-1A]_H5.1_A5.1_F5.1_T5.2_[T11A]_[A12T]] registered a Kd of 10.6 nM.
The result for UCUCUUUGUAAAGUAUCUCUU (ssRNA) [Ic_S1_P4E.1_K4.1_C4.1_H4.1_A4.1_[T5A]_[T7G]_F4.1_T4.1] reads 7.21 nM.

For the origin of these results see paper PMC9352680, “A comprehensive thermodynamic model for RNA binding by the Saccharomyces cerevisiae Pumilio protein PUF4”.
